Values quoted from earlier work, collected in article PMC10696404.
Values joined by “and” are separate entries in the source; they are usually repeats but may differ in a detail not shown here. Equal entries are not always repeated. Blank lines part the entries; values can stand above or below the substance they belong to.

Legend:
[1] = biological target: NRP1 (Homo sapiens) (UniProt O14786); assay: SPR
[2] = biological target: JAG1 (Homo sapiens) (UniProt P78504); assay: SPR
[3] = biological target: CD13 (Homo sapiens) (UniProt P15144); assay: SPR
[4] = biological target: DLL4 (Homo sapiens) (UniProt Q9NR61); assay: SPR
[5] = biological target: CD146 ECD (Homo sapiens) (UniProt P43121); assay: bio-layer interferometry
Sequence of CD146 ECD (Homo sapiens) (P43121 24-559): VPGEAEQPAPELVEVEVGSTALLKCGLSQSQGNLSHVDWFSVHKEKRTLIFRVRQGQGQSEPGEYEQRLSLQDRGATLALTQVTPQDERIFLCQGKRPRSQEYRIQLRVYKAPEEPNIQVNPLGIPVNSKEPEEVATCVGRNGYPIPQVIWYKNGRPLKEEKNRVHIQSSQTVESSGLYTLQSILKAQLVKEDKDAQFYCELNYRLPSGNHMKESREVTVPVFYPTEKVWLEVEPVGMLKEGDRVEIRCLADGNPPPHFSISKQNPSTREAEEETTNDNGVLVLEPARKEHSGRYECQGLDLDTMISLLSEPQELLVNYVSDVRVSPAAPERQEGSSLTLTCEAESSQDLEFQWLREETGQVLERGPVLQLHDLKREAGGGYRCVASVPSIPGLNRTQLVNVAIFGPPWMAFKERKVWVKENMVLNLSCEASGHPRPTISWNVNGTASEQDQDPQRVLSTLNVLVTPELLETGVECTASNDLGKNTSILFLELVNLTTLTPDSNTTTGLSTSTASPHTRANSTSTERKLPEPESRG

[6] = biological target: CEA (Homo sapiens) (UniProt P06731); assay: SPR
Sequence of CEA (Homo sapiens) (P06731 35-676): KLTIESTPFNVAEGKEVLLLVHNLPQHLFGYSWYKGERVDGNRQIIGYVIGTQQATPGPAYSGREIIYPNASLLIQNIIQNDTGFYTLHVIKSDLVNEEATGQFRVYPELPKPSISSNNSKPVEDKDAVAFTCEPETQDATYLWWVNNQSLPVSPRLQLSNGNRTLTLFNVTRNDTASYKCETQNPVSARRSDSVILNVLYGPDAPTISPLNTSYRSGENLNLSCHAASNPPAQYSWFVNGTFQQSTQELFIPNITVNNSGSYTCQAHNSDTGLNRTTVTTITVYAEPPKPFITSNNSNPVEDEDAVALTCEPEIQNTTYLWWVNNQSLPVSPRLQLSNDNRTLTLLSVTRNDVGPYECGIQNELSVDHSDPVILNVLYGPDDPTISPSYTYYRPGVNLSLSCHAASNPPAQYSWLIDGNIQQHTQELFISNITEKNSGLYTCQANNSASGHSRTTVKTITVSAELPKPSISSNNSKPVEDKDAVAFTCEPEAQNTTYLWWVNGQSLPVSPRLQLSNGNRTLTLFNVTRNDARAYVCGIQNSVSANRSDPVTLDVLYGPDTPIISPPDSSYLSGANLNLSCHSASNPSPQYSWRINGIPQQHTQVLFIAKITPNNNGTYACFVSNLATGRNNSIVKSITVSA

[7] = biological target: CD44v3-10 (Homo sapiens) (UniProt P16070); assay: SPR
Sequence of CD44v3-10 (Homo sapiens) (P16070 21-742): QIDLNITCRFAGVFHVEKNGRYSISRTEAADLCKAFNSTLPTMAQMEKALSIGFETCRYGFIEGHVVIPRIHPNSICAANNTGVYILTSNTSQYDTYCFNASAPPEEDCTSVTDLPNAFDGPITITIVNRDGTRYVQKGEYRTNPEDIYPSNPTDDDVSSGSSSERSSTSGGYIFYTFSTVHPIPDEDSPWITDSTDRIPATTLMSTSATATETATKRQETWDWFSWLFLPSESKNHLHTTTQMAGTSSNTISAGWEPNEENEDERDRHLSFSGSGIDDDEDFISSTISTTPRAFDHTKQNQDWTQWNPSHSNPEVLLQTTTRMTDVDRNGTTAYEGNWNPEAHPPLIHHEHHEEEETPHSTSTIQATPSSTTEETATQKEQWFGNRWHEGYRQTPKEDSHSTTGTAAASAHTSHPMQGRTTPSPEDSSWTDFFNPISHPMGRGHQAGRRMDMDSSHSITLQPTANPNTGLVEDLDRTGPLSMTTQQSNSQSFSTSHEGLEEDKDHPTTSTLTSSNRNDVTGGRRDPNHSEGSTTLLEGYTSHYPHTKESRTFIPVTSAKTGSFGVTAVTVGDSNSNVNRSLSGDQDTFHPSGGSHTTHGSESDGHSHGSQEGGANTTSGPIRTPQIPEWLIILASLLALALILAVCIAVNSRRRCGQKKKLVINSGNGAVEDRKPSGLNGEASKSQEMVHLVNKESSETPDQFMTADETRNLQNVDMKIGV

[8] = biological target: CD44s (Homo sapiens) (UniProt P16070); assay: SPR
Sequence of CD44s (Homo sapiens) (P16070 21-742): as above

[9] = biological target: ALCAM (Homo sapiens) (UniProt Q13740); assay: SPR
Sequence of ALCAM (Homo sapiens) (Q13740 28-583): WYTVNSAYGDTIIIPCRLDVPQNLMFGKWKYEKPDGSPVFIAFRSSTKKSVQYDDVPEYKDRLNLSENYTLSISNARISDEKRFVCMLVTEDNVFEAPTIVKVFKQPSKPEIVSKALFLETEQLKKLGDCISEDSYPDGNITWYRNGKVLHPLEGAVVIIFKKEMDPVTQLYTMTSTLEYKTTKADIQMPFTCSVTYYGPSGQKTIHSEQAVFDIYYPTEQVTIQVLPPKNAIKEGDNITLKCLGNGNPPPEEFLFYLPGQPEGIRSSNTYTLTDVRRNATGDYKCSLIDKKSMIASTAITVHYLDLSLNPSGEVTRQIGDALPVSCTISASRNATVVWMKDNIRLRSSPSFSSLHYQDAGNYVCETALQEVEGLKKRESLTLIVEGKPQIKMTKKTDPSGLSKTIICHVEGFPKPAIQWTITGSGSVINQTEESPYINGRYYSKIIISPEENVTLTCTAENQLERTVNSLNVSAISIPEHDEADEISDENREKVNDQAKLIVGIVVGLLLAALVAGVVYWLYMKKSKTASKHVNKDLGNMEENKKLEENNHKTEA

[10] = biological target: CD44vRA (Homo sapiens) (UniProt P16070); assay: SPR
Sequence of CD44vRA (Homo sapiens) (P16070 21-742): as the sequence (P16070 21-742) above

Sequence of GAL-8 (O00214 whole entry): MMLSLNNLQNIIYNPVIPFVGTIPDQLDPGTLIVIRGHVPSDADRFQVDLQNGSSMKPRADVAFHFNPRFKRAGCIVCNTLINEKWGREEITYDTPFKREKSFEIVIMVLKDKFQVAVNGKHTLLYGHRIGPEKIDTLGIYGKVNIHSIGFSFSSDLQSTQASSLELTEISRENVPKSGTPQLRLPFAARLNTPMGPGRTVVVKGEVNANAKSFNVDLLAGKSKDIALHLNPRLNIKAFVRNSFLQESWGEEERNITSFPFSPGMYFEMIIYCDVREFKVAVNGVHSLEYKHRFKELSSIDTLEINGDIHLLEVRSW
Sequence of GAL-3 (P17931 2-250): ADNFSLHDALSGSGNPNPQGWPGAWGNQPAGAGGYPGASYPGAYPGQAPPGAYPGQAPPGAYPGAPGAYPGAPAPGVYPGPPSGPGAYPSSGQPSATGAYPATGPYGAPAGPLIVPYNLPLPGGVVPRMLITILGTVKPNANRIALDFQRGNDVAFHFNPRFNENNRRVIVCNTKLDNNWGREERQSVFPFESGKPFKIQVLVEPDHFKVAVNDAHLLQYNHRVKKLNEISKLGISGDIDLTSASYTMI
Sequence of GAL-1 (P09382 2-135): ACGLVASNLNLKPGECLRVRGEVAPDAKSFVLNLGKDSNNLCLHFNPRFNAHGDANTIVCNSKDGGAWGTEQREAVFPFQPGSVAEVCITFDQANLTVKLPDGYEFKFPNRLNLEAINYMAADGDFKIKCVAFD
Sequence of NRP1 (Homo sapiens) (O14786 22-923): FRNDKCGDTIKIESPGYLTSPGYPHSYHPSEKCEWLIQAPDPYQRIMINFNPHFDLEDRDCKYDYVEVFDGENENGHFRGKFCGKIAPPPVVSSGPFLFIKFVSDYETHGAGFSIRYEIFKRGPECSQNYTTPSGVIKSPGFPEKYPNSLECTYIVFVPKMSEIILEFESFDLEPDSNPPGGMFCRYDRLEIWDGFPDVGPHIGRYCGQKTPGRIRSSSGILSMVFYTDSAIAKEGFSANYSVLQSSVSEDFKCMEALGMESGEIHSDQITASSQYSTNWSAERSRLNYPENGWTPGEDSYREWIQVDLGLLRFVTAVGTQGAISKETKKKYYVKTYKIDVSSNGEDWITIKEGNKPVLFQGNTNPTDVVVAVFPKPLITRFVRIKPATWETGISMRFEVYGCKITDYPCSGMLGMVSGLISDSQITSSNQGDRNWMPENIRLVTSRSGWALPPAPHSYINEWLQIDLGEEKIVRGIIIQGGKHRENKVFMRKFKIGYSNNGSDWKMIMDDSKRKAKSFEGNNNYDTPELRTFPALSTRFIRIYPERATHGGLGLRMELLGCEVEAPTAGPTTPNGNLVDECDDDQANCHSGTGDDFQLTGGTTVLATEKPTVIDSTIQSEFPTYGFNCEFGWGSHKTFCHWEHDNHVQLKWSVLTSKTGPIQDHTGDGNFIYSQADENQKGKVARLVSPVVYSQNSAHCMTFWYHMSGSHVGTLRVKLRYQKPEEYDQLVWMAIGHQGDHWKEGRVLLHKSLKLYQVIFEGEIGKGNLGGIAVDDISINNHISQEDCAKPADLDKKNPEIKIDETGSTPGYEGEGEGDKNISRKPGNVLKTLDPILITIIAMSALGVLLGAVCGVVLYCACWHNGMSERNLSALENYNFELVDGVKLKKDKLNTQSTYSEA
Sequence of GAL-4 (P56470 whole entry): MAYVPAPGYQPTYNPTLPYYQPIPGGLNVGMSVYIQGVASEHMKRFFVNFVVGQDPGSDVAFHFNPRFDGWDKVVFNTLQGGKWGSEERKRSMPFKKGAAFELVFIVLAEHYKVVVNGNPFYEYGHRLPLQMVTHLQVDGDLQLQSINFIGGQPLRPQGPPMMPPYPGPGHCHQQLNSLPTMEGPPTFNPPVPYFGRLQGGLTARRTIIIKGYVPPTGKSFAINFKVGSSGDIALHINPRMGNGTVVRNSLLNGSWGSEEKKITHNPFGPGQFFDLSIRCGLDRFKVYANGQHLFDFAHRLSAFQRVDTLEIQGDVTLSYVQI

Kd [1]: 109 nM
Substance: GAL-1 (from UniProt P09382)

Kd [2]: 8910 nM
Kd [3]: 349 nM
Kd [4]: 8520 nM
Kd [5]: 1100 nM
Substance: GAL-3 (from UniProt P17931)

Kd [6]: 20 nM
Substance: GAL-4 (from UniProt P56470)

Kd [7]: 27 nM
Kd [8]: 10000 nM
Kd [9]: 3190 nM and 2000 nM
Kd [10]: 5.8 nM
Substance: GAL-8 (from UniProt O00214)
